Target: RelA-ECFP (human, UniProt Q04206 1-551)
Assay: cell-based or functional assay

Sequence of RelA-ECFP (Q04206 whole entry): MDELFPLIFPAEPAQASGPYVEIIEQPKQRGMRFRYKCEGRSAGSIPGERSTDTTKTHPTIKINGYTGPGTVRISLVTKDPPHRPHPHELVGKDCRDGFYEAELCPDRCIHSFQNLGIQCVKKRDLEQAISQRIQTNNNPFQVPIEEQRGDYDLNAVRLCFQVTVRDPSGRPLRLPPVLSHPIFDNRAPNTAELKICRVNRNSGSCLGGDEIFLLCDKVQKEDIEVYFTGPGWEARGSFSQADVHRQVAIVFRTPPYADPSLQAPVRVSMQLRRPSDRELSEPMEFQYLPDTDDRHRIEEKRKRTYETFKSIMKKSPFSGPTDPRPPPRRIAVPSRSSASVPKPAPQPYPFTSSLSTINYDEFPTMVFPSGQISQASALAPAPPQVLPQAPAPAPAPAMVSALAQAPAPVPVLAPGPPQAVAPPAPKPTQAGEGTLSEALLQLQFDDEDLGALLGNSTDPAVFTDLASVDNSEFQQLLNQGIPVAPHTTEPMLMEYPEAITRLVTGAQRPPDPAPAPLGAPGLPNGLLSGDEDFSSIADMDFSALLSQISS

B1: IκB-EYFP (natural protein, human, UniProt P25963 1-317, looked up)
chain: MFQAAERPQEWAMEGPRDGLKKERLLDDRHDSGLDSMKDEEYEQMVKELQEIRLEPQEVPRGSEPWKQQLTEDGDSFLHLAIIHEEKALTMEVIRQVKGDLAFLNFQNNLQQTPLHLAVITNQPEIAEALLGAGCDPELRDFRGNTPLHLACEQGCLASVGVLTQSCTTPHLHSILKATNYNGHTCLHLASIHGYLGIVELLVSLGADVNAQEPCNGRTALHLAVDLQNPDLVSLLLKCGADVNRVTYQGYSPYQLTWGRPSTRIQQQLGQLTLENLQMLPESEDEESYDTESEFTEFTEDELPYDDCVFGGQRLTL
  transactivation of the IκBα-promoter EYFP reporter by the p50/RelA heterodimer in the presence of IκB (untagged proteins) in Arabidopsis protoplasts, EYFP/ECFP emission relative to the basal activity: 3.5 fold

From paper PMC3543382, “Elements of Transcriptional Machinery Are Compatible among Plants and Mammals” (PLoS ONE, 2013)
